# Laboratory results as given in IntAct's records for PubMed 16456538.
# B1: Uncharacterized protein TRE1 (Saccharomyces cerevisiae), Q08919 (parent)
# chain: MVNTRGYTTLPNVEEPANNSQDELNSQDFEQAIGMPSEPPVYVEEMGMEEPQAPEAFSEKVQRFRMCFENNVVIPVKKNVVDPLAQMISLASEKFDLFLSKIGNVMVMRRIFYIMMMSIIAALIIASDRLPNGKARGSNGSFSDHDLLLQYARKSIDLSKIERDLEYISSMPHMSGTSGDAAIRHYIKESFDKNGIRLAGEEEFMAYSNYPGNVSLRVYSKDDTEGFDIPLNEENFNPMSHNGQLNNIPVIYANKASLDDMASMQDQGLLNGDFILLVHYGDYVFQQMLTAQEYGAKAIIFISEPYQDNKDVIQMKSVALPQYGTGDALTPEWEGSIRDPIDATEAKCLPKIPSIPISANQGDKILAILSDTGVKFSNNLFSGSLNDCRLDLLVQTAIRERHPVHDIVGKIEGSEQAGRAIVIAAPRNSASYGTMYPSFGTVVLLSLIQLYQEMVYKFDWKPLRNIYFISFGGSEFNEAGATELMEKRTEALKSEIYTIIDVGQIGIWDDSNNLEIQCHPLLVDLFQKNMTSRKFNVKVDNVHQFGDWTPYLAQGIPVAIISSPGVMNREHPIYTVEDKFDFIKDKLRDKKKGEVLSEIMLYLVEKSLELIDDPFIPFSISNYVDFLSTTLKDLQKECPDTVNFDEVFLGTTLWENTKLQFEKWKSEWTELMYGAGTYIEPTIIAINRWSWNYLLSLIGVTQCLEEGLMDRTFYKNVIFGPKLWVDKGDPLRSWTFPEIRDTIAIKDWSSVQVQANTLGTILQNTARYFLENKNLHGINTNEF
# Variants of: B1
# Conditions: with rsp5_yeast RSP5, P39940
# rsp5_yeast RSP5, P39940, sequence (P39940 whole entry): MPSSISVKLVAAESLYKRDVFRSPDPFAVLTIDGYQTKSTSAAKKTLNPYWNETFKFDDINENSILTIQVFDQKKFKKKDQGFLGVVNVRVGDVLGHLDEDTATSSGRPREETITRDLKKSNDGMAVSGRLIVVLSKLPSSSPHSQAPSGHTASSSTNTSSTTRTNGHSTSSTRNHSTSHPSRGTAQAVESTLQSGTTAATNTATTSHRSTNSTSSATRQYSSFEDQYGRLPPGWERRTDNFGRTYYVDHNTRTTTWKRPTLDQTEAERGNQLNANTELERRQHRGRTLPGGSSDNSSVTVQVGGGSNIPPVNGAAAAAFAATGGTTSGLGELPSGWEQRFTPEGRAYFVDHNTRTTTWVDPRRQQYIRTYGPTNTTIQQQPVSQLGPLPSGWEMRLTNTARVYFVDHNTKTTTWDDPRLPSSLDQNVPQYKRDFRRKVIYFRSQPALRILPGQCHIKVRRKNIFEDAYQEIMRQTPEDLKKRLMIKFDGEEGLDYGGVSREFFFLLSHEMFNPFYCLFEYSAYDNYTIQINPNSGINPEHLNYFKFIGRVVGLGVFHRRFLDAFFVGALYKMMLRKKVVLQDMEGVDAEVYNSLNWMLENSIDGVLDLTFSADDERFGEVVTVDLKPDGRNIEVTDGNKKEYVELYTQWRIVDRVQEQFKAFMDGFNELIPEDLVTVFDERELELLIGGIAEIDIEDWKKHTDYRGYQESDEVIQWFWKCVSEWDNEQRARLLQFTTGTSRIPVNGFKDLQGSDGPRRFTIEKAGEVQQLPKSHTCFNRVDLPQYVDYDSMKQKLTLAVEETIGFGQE
row,effect of a mutation on the interaction,Variant
1,disrupting interaction,Y42G
2,disrupting interaction,V41A

# Variants of: B1
# Conditions: with rsp5_yeast RSP5, P39940
# Remark: another data set of the same source
row,effect of a mutation on the interaction,Variant
1,decreasing interaction,Y42G
